Measured values from the domain aggregation screens of Martell et al. (2025).

Assay: soluble fraction after stress (log2 fold change); higher = more stays soluble; pooled small domains, quantitative proteomics
Conditions: stress: 50 degC
In short: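 Pooled custom libraries of small protein domains were measured in a high-throughput format, with quantitative proteomics as the read-out. Each library was stressed at 50°C. Aggregation propensity is given as the base-two logarithm of the fold change in how much of each protein stays soluble after the stress. Higher values mean a larger share of the protein remains in solution.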

Row | Sequence | soluble fraction (log2)
1 | HMLPKTVTLIDPVSGVAKTVTWVPALTLYSARRKAGLNRVPNTATIDRGGRELTGKRGSTLQPGDVVRW | -0.425
2 | HMSKNVTMPNLVGYSMRQAKAELLSRGLHLGKLIYVNDIATNNVISQLYRNAEIEPGVKIESESYVDLVVG | -1.45
3 | HMEVSTDADFEAVGIRAELIPILQKLGFTTVAQLKEVKATKLFNDIPGMRKKLKLDAVQNPTLQEIEGWLK | -0.0529
4 | HMAYWVVKNNQVSLQINRSNYQITSTARALSNGNLGDEIDVKVLQSGVIKKAVVIGKGQVELLR | -1.89
5 | HMDSQKKNETLSSTADEIIKNYAGKRDLSEESMEQLEQFQKDMRGADVNIFTAAQIRMLDQIFQENLH | -0.0243
6 | HMSIITLFQEINAAVAEATGGRVPESVVQNFILGKDVVIPEDVKEIIISKLKAFATDIEGMLEESGFD | -0.909
7 | HMGSEYILTIIPTPADATVFINGVKKNSASGVNGQILSWEVTKEGYIPQSGTFTINGKNETIEVVLQPQT | 0.00105
8 | HMPMTLGENIARLRTQKDWSQGDLADALGISRQSISKWETDTSIPELEKLIKLSELFGVTLDQLVRGE | -0.193
9 | HMSKNTFIGNIDDKELYVGSGRYGPFMLYDGKFTNITRYLSDESKELTDITIDDYSKIVNNARPK | -0.101
10 | HMFNEFEDIPDIISAEGIDPAMREEVAANLKKYYKNPDAMLALAPLEREYYEKLVGILSEKIELKKEN | 0.563
11 | HMISKRFQIDEENAHKRIDIFLSHEFDSISRGIVQELIVKGEVLVNDKVTKRNYKLKTGDLVDITINL | -2.59
12 | HMYSDQRMEIFLEHLPDFIEQLSHKHVTRQMVWEDYRMIYPDGYGKSQFFFHLAQNLKAQKP | -3.3
13 | HMISDDLYQAVLDFTLTQDTISISRLQQNFNLGWPRARQLYDQLMQNGIIEPPDEANSAKGAVVIANKRG | 0.46
14 | HMSSASETQYELALQAMRDGDNDAALRSLSTALASGFSDWQRIDEEPLLAALANDVRFQVLRSRWK | 0.0414
15 | HMDGLAEQLFNILREELESGDYKPGQKLMSESALAQKYGVSRLTVRAAIARLSALDYVETRNGEGSFVKKR | 0.0422
16 | HMKEEDYEVFMRLINVRGIGPKSALNILGVISGQEMIQAIENDDIKRLKSLPGIGAKTAGQIVLDLKGKFV | -0.649
17 | HMQDAVASEKIQLMSEALHARDTGDLLLAKEKVEKLIALAPNDKNIQALLLTINQSIEDKGL | 0.101
18 | HMVQLAEGERYRRIQEANDFINRQQWPGKAAMGRLKDTEKAQYNLWLDYLDALEAVDTSSAPKINWPVPPE | 0.167
19 | HMQQLTDRELEVLRLLAAGLSNNKIGEKLYISATTAKFHVSNIMRKLEVSRRAEAVYAASKRGL | -2
20 | HMLKLYILTDGKNYVMDDPIHPGRVMYSTSPVNAKKFTFKQARALLNNKSKKLSWIRSFNMVDDSSGEKI | -0.692
21 | HMKHYMKITDISLQTRDKNRVNVSVDGKYRFSLDVFQVGELGLKVGREYTDEELTALEDESQFG | -1.41
22 | HMKPMNNNDILRRLRYTFDLSDDKMMETFALGGYEANRSEISDWLKKDDHPEQKSLYDKSLSHFLNGFIV | -0.202
23 | HMSREMIKSELESISGLGKSGIEKLYTHFINIENIKSASLENIRNIPGISYKVADNIYKHFH | -0.195
24 | HMERQILFTKEDLIEFGLSGGTDSRKRRDVLGHILGIGYSNSKQFLNRLNNFGVTREEFLSAIERIG | -0.778
25 | HMDDSVVFSLNAKGIRLTGAGKYGEAIALFDKAIAAKPGLSGLYFNRAEARRLSGDLPGARSDLEQALAI | -0.453

Row | Sequence | soluble fraction (log2)
26 | HMAPADLSPEERVVLDALALEPVHVDALAAKLGRRSEELLTSLTLMEMRGLAVAHAGSRYSRATMT | 0.0694
27 | HMSNYFIEISKDSLARINDEIELDVLRETSDTIIISQEEKTNTISSFIKVLFERQIDILSIQNR | 0.000151
28 | HMAVTGRVDLRIKPWGYVSVDGAAKVSSPPTMQLKLAPGRHEIEITNPAGAAVTKTVDVIAGKSVTVQHN | 0.0967
29 | HMNKLIIDAAEDKIFFMIMNNDISYNISHENTKINFEKLIILINDFLSSKKLKINDITGLYV | 0.067
30 | HMADENIELRKAGLKVTLPRVKILQILEAAKEPHMSAEDVYKALMEANEEVGLATVYRVLTQFESAGL | -0.267
31 | HMQPIAVHIGTENPMKSLSDLSVVRAQFTSGGRVIGSVAVLGPTRMQYSRIVGMMRFMQQRLDLLLKG | 0.0586
32 | HMARGATELPYSQLLDRVEAGEITTATTQGNTLLSTARDGKRYITYLPLDTMDEVVPRLDAANVEVKTER | 0.0506
33 | HMKEILVGVEPLSKKQIIIKKGIKGRSDYIIFEKKNYGLPENLKPEEVSIEIALKIIDEKKKRKA | -1.23
34 | HMNSEPKTKLQEIAQERGLAAPVYETTHTGPDHDRIFSASVTVGDVVAAGEARSRKGAESEAAIAAIKALG | 0.212
35 | HMSKHLWNKVLPKVTTANITNLINQAIRKGEWRMDNKGVVHIIWRYRGKIIEVTGYLKDKVFNVGNAWVR | -0.122
36 | HMDKAALGQKLRQARLDKGYTQQSLSEKADIGEVYLSEIERGLKMPSMNLFIKLITALDISADYILR | -1.44
37 | HMLVSFGDHLKRYIYERAGIEEPFGEVPQEIYRDIAVDSFRETYTPKSMNPTSTKLPALVNNWLIQ | -0.746
38 | HMDSPALAIPSSAILRDGLEHIFFRQDPSDPDQVIRVVADLGLSDGRWTVVRSGLERTDQVVLSGA | 0.0102
39 | HMASALDFGRYVRSQYSLQEFPLILIAPLNDPHPKEVVRELFNLYLTKPITRSRLFDSLMTVLG | -0.753
40 | HMDGDFGMNLDWQPSEHFPTLARQAGIPADHITAEAIAEFRSYWIGQGKAMTQYQWDHKLLTNLKATKTR | -1.14
41 | HMDRPEPLYIVNGKEVQTLEEAFELGRTLGSAKKGTQVRLRRLLPEEGVEKYGEKGRNGVFEFMVSA | 0.217
42 | HMGTPEQSAQFEQVLEELKNVPGPVMKAMQRAQDIYGYLPIEIQSRIGQAFGVSLEEVYGIATFYSQFNL | -1.68
43 | HMGELTSILVATKQIEPGETLSSSNTQVKSWISDLIPEGAITNPESVMGRTVSSVIGVGMPVVSLHLR | 0.0954
44 | HMGNNTEITYSEFIRQAEAGNVQYVTVDGEKLLISATDGKSYYTINPRDDQMTDRLLNSGVEIRAEPQ | 0.101
45 | HMDSKKNLLGKNGLAFTTLRPAGTVLIDGQRHDVISNGDMIPKGATVRVIAIEGASITVEALPD | 0.155
46 | HMDDATIKVNIAAKFLNAGNNLFVDIDTTVLEGRVLLTGLVDTQEVRIDAVRLVWEVEGIREVINEIEIG | -4.89
47 | HMDGYLQLASKKNELITQLKTPPKPKRLFKDFEDRVYLITEYKVFVVSIFQNEFRLRPVNKDDFYRYTT | 0.207
48 | HMEEDDGVDFHERLTELNDEQVYYLINTEPAKVIALALDQLGQKRKINIMNRFNPDMKHSIIMELGKL | -0.516
49 | HMEHQLLHMEKTIFEEIADDYPQLNHTKIRNVLAAFLFTNDDVFKRIADLSGGERGRVSLAKLMLSDA | -0.188
50 | HMKNTVGEYRKLKSTTILYSNSDLTGTKYTYLPNTTVKILKNISSTVDYVYIKATNRYAYINIYAYT | -2.75

Row | Sequence | soluble fraction (log2)
51 | HMDVFPDESLKAWLIEMGFKLDQKKMNVFTVLRRMLLQTAPSVKEFRILEIVLQQSRRKLKELNDLKKS | -0.0335
52 | HMAEKGIGRVNADWLNMRTSPGGEVLTVLKQGTELQVIGRSGSWLEVQHGNEQGYVSSRYITIQP | -0.17
53 | HMNKFADLAGNIIYNENGVEVFNFGKYKGQPVAEVFKKDIGYYGWIQNADFPRYTKKVFTAIQLKSK | -1.22
54 | HMKALRNQDVVVGKPLAMAVYDQHGVLLLGRGHVVISESQRQQLLERGFSIDAEQLGRLRAAIEATQRV | -0.378
55 | HMDEDTWKLYKRAYKKYYARYMKGNMSEEAFKTWAAQAARDRDAAIEQVKAALDENLKAQVIERLKEELNR | -0.407
56 | HMDEYTREQFVADMEEGRVREVTIHPNSEVPTGYIRVELANGADMKLYVTDIVEAEELVRSYGFDPPVRDV | 0.128
57 | HMQEQSSYVGQFGTAATTLRPSGTVELEDGTRIDVVTVGEFIEKGEPVQVVRKDGTWLVVEKRRSK | 0.286
58 | HMQLVGSSAAVLIPAPAGGLGKIRLEFRGQTIDLIAKATDGGALIEGGAVTIVDVRDGQADVSV | -0.552
59 | HMTDITSAITRLNKYNKSGTPLTIDSVTPEALQTLQAKVSSAFEIGAVNQQTYDDVTKDIATLQQYLSSA | 0.15
60 | HMKEVKPSDFFLSKLDEDHNLIEKFNALSSFKQKEFIEYIDSAKQEKTKHDRFEKIKPILLSNIGLNDKYR | 0.075
61 | HMNDEQFAIAKNDLLLSLYDGKEVNNSAAEYIIAWESLEKSPSDYISSQLKNTAESIIKISFD | 0.0499
62 | HMEDIVDLVVEPEAAGRRLDAWLASRIERLSRSRIKALIESGHVAIGGATIVEAKKPVNSGDVVQLSVPEG | 0.0215
63 | HMIPLSDEETILLKLLEATETHLDALIRGSQLSAAKVSVVLMGMEMKRLVKRLPGQMYQRWD | -1.84
64 | HMNLLGERIREIRMEMGLTAKELAQRASVTPGYISQIEHDQIKPSMNVMMRIAEVLNVPMAALLM | -0.51
65 | HMTHRRLELTLDAIDERLDRALTAAVPELSRMQWQRLIREGLVTVDGERARPSYRIQGGETLVALVPEV | -0.234
66 | HMKVMTNAELGRIIKEARIARRMTQSEVVGDFITRNMLSQIENGNAAPSMRTLQYLMDVLDIHINIE | -2.58
67 | HMTGETWAERSRALAAAGLIVMGQEAKNKIEDLPSLSPLIEAAAASETRLLTGQIIDELLAFV | -0.288
68 | HMGEIILVPDVKAQGVSDARYTLNQAGLDAVIADSSYNRNSPPGAVLEQMPAPGSKVKSGHAIYLIINTT | 0.053
69 | HMGGSDIYLGAFNIPQGSVRVTSGGQALTEGKDFTIDYNLGSVKIINQAILNSGIPVSVSYENNAG | 0.123
70 | HMELAALKILNSPIGKIAIGTSENGLVKLDILTSGQTRAEFSDLPKAHKLALDAADQLAAYF | 0.0579
71 | HMKEHDTLALRLTAILRKLNDGEKLVPRELAEEFNVGIRTIQRDLTERLSFLDLEKTNGAYSLPTRNL | -0.428
72 | HMFINTVELGRAIKRRREELGLSLRDVADVTNVSASTLSRIENGTGKPDADNIARLTGWLDMPIDRVM | -0.0139
73 | HMDVTSLDMLRFLMDQHGLRQQDLSELGSQGVVSEILAGKRELNLRHIGALARRFKVPPEVFLPA | -0.631
74 | HMSPIPLPVERAIHKLGSDISLARRRRHISQASLAERMGASLSTVRRMEKGDVRVPIHFFARALHVFG | -0.00115
75 | HMFLTPLEEARLVIEEIVIPKNIAVDLSPRPSALRKQQHELIAHYQLKSFSVGNERTKRLRILPKVI | -0.114
